Reference: article PMC4169044

Target: 55S mitochondrial ribosome from pig liver mitochondria (pig (endogenous in pig liver mitochondria))
Assay: Western blotting of purified ribosomes against a protein standard; amount of integrated ICT1 on purified pig 55S ribosomes estimated with purified ICT1 as a standard

stoichiometry N (ICT1 per 55S ribosome): 1
Substance: 55S-integrated ICT1 of the pig mitoribosome (mitochondrial ribosomal protein L58) (natural protein)
